Paper PMC10470768

Experiments:
[1] = tested on: Tde1tox H279A/D282A (catalytically inactive Ntox15 domain) (Phocaeicola vulgatus); test: BLI; conditions: BLI (Octet Red96), biotinylated oligo on streptavidin sensors, Octet kinetics buffer (Sartorius), association 300 s, dissociation 600 s, one-site equilibrium …
[2] = molecular target: Tdi orphan A (TdioA), orphan immunity protein; test: BLI; Octet Red96; hexahistidine immunity proteins (5 mg/mL) immobilised on NTA biosensors; varying concentrations of Tde1^tox H279A/D282A in Octet kinetics buffer; association 300 s, dissociation 600 s; one site fit of equilibrium binding data
[3] = molecular target: Tdi orphan B (TdioB), orphan immunity protein; test: as above
[4] = molecular target: Tdi1 (cognate immunity protein of Tde1) (Phocaeicola vulgatus); test: as above

Substance	Kd [1]	Kd [2]	Kd [3]	Kd [4]
30-bp random-sequence biotinylated dsDNA	500 nM			
30-nt random-sequence biotinylated ssDNA	500 nM			
Tde1^tox H279A/D282A (catalytically inactive Ntox15 domain of the Hcp-Ntox15 effector Tde1) (domain or fragment)		24 nM	19 nM	18 nM
